Test results as given in patent US7001748B2, “Methods of making polyketides using hybrid polyketide synthases” (The Board of Trustees of the Leland Stanford Junior …, priority 1999, dated 2006).
Values joined by “and” are separate entries in the source; they are usually repeats but may differ in a detail not shown here. Equal values may be shown once. Read-outs that look alike come from different tables or passages of the source.

Key:
[1] = Kinetic analysis of individual modules with natural diketide (NDK); format: biochemical; conditions: NDK as substrate, 30° C., saturating NADPH and methylmalonyl-CoA
Procedure: In Vitro Polyketide Production. Assays of individual modules contained 1.0 μM protein, 1-10 mM N-acetylcysteamine thioester of the “natural” (2S,3R)-2-methyl-3-hydroxypentanoic acid diketide (NDK) (1), 4 mM NADPH, 440 mM sodium phosphate, 1 mM EDTA, 2.5 mM dithiothreitol (DTT), and 20% w/v glycerol, pH 7.2, in 80 μL. Reactions with M2 or M2(4) included 0.3 mM ^14C-methylmalonyl-CoA (specific activity adjusted to 10.4 mCi/mmol), and those with M3+TE or (5)M3+TE included 0.5 mM ^14C-methylmalonyl-CoA (specific activity reduced to 1.1 mCi/mmol). [M2(4) refers to a derivative of M2 in which the C-terminal linker has been replaced with its counterpart from module 4, whereas (5)M3 refers to a derivative of M3 in which the N-terminal linker has been replaced with its counterpart from module 5 (see FIG. 4).] […] Product formation was quantified by comparison with standards of the labeled methylmalonyl-CoA. […]
Kinetic Analysis. For individual modules, the steady-state turnover number was determined from the time course of triketide formation, normalized to the concentration of protein. The dependence of the rate on substrate concentration was measured by varying the concentration of NDK while maintaining saturating levels of NADPH and methylmalonyl-CoA.

[2] = target: T1, M3+TE (Saccharopolyspora erythraea, UniProt Q03132+Q03133); test: Tetraketide lactone 2 formation, coincubation of donor module with M3+TE; format: biochemical
T1 construct: encodes module 3 of DEBS (M3) with its own N-terminal linker and with the thioesterase fused to the C-terminus; natural N-terminal interpolypeptide linker of module 3 (start of DEBS2, ahead of the Module 3 feature); His6 (C); made in house; host or cells: E. coli BL21(DE3) co-expressing B. subtilis sfp
Procedure: (§1) Assays of M2 and M3+TE contained 1.0 μM M2 and 0.4-4 μM M3+TE, 7 mM NDK, 0.5 mM ^14C-methylmalonyl-CoA (specific activity reduced to 3.4 mCi/mmol), 4 mM NADPH, 440 mM sodium phosphate, 1 mM EDTA, 2.5 mM DTT, and 20% w/v glycerol, pH 7.2, in 70 μL. Assays of M2(4) and (5)M3+TE were identical, except they contained 0.5 μM M2(4), 0.5-5 μM (5)M3+TE, and 0.4 mM ^14C-methylmalonyl-CoA (specific activity reduced to 6.2 mCi/mmol). The concentration of M2(4) was limiting in order to facilitate its saturation with (5)M3+TE. The reactions were prewarmed at 30° C. and initiated by the addition of the methylmalonyl-CoA. As described above, 20 μL aliquots were removed at various time points and processed. Extracts loaded onto TLC plates were separated using either 80% ethyl acetate in hexanes or 5% methanol in dichloromethane, both of which allowed identification of the tetraketide lactone 2 and the triketide lactones 3 and 4.
(§2) For tetraketide formation, the rate of production of tetraketide was recorded for varying concentrations of M3+TE [or (5)M3+TE] at a fixed concentration of M2 [or M2(4)] and saturating concentrations of substrates. By fitting the rate dependence of tetraketide to a saturation curve, the maximal velocity (νmax) of tetraketide production was determined, and was assumed to represent the case where every M2 homodimer was productively associated with an M3+TE homodimer. Thus, the affinity of this protein-protein interaction could be calculated from the rate of tetraketide formation, as represented in Equation 1 ν=kcat[M2-M3] (1) ([M2], [M3], and [M2-M3] refer to the concentrations of M2, unbound M3+TE, and the M2/M3+TE complex, respectively). Since [M2-M3] is related to the KD of M2 and M3+TE as shown in Equation 2, [formula] which can be rearranged to yield Equation 3, [formula] where [M2]0=total concentration of M2, the velocity of tetraketide production can be defined relative to the KD: [formula] where ν=kcat[M2-M3] and νmax=kcat[M2]0. […]

[3] = target: T2, (5)M3+TE (Saccharopolyspora erythraea, UniProt Q03132+Q03133); test: Tetraketide lactone 2 formation, coincubation of donor module with (5)M3+TE; format: biochemical
T2 construct: (5)M3+TE: module 3 with N-terminal linker from module 5; N-terminal interpolypeptide linker of DEBS module 5 (start of DEBS3, Q03133); His6 (C); made in house; host or cells: E. coli BL21(DE3) co-expressing B. subtilis sfp
Procedure: as §1, §2

[4] = target: T1, M3+TE; conditions: cited from earlier work
[5] = target: T2, (5)M3+TE; conditions: previously shown; cited from earlier work
[6] = target: T3, module 5+TE (Saccharopolyspora erythraea, UniProt Q03133); conditions: diffusive loading, shown earlier; cited from earlier work
T3 construct: a single module of the DEBS PKS fused to the thioesterase (TE) termination region of module 6; thioesterase (TE) domain of DEBS (end of the same DEBS3 polypeptide); made in house; host or cells: E. coli BL21(DE3) co-expressing B. subtilis sfp

[7] = tested on: (5)M2+TE, (5)M5+TE, and (5)M6+TE; conditions: Wu et al. 2000; cited from earlier work
[8] = target: T4, (3)M3+TE (Saccharopolyspora erythraea, UniProt Q03132+Q03133); conditions: previously shown; cited from earlier work
T4 construct: encodes module 3 of DEBS (M3) with its own N-terminal linker and with the thioesterase fused to the C-terminus; natural N-terminal interpolypeptide linker of module 3 (start of DEBS2, ahead of the Module 3 feature); His6 (C); made in house; host or cells: E. coli BL21(DE3) co-expressing B. subtilis sfp

[9] = CD spectroscopy of the M3 N-terminal peptide; format: physicochemical
Procedure: CD Spectroscopy. The CD spectrum of the M3 N-terminal peptide was recorded in a 1-mm path-length cell at a sample concentration of 100 μM in phosphate-buffered saline (PBS; 0.15 M KCl, 25 mM phosphate, pH 6.9). Measurements were made using an Aviv 62DS spectropolarimeter. Concentration was determined by tyrosine absorbance at 275 nm in 8 M guanidine hydrochloride.

[10] = target: T5, individually assayed modules, including M3+TE (Saccharopolyspora erythraea, UniProt Q03132+Q03133); test: Effect of synthetic peptide on individually assayed modules; format: biochemical
T5 construct: encodes module 3 of DEBS (M3) with its own N-terminal linker and with the thioesterase fused to the C-terminus; natural N-terminal interpolypeptide linker of module 3 (start of DEBS2, ahead of the Module 3 feature); His6 (C); made in house; host or cells: E. coli BL21(DE3) co-expressing B. subtilis sfp
Procedure: In Vitro Polyketide Production. Assays of individual modules contained 1.0 μM protein, 1-10 mM N-acetylcysteamine thioester of the “natural” (2S,3R)-2-methyl-3-hydroxypentanoic acid diketide (NDK) (1), 4 mM NADPH, 440 mM sodium phosphate, 1 mM EDTA, 2.5 mM dithiothreitol (DTT), and 20% w/v glycerol, pH 7.2, in 80 μL. Reactions with M2 or M2(4) included 0.3 mM ^14C-methylmalonyl-CoA (specific activity adjusted to 10.4 mCi/mmol), and those with M3+TE or (5)M3+TE included 0.5 mM ^14C-methylmalonyl-CoA (specific activity reduced to 1.1 mCi/mmol). [M2(4) refers to a derivative of M2 in which the C-terminal linker has been replaced with its counterpart from module 4, whereas (5)M3 refers to a derivative of M3 in which the N-terminal linker has been replaced with its counterpart from module 5 (see FIG. 4).] Both concentrations of methylmalonyl-CoA were saturating, but different concentrations were needed due to the disparate rates of turnover between the modules with and without the thioesterase. The reaction mixtures were preincubated to 30° C. and started with the addition of the methylmalonyl-CoA. […] Product formation was quantified by comparison with standards of the labeled methylmalonyl-CoA. […]

[11] = target: T6, M2(4) and (5)M3+TE (Saccharopolyspora erythraea, UniProt Q03131+Q03132); test: Inhibition of tetraketide production by synthetic peptide, M4-M5 linker pair; format: biochemical; conditions: peptide concentrations up to 100 μM
T6 construct: Plasmid pST179 encodes a derivative of M2 containing the C-terminal linker of DEBS module 4 (M4); made in house; host or cells: E. coli BL21(DE3) co-expressing B. subtilis sfp
Procedure: (§3) Inhibition of Tetraketide Production. The ability of the synthetic peptide to inhibit the transfer reaction, and thus the production of tetraketide, was tested under the same reaction conditions described for the two module coincubations. The concentrations of M2 and M3+TE were both 1.0 μM, and the concentrations of M2(4) and (5)M3+TE were 0.5 and 1.0 μM, respectively. The only difference was the addition of the peptide at concentrations ranging from 1 to 100 μM to the assay containing M2 and M3+TE [or alternatively M2(4) and (5)M3+TE]. For greater accuracy, each inhibition assay was performed side by side with a control lacking inhibitor. The effect of the inhibitor was thus determined by dividing the inhibited rate by the control rate.

[12] = target: T7, M2 and M3+TE (Saccharopolyspora erythraea); test: Inhibition of tetraketide production by synthetic peptide, M2-M3 linker pair; format: biochemical; conditions: peptide 1 to 100 μM, 1.0 μM M2 and M3+TE
T7 construct: Plasmid pBP19 contains module 2 of DEBS (M2) and is a derivative of pRSG64; made in house; host or cells: E. coli BL21(DE3) co-expressing B. subtilis sfp
Procedure: as §3

[13] = target: T8, module 2+TE (Saccharopolyspora erythraea, UniProt Q03131+Q03133); conditions: diffusive loading, shown earlier; cited from earlier work
T8 construct: a single module of the DEBS PKS fused to the thioesterase (TE) termination region of module 6; made in house; host or cells: E. coli BL21(DE3) co-expressing B. subtilis sfp

[14] = target: T9, module 6+TE (Saccharopolyspora erythraea, UniProt Q03133, DEL53-1503); conditions: diffusive loading, shown earlier; cited from earlier work
T9 construct: a single module of the DEBS PKS fused to the thioesterase (TE) termination region of module 6; made in house; host or cells: E. coli BL21(DE3) co-expressing B. subtilis sfp

[15] = listed as N-terminal linker of module 3
[16] = listed as synthetic peptide mimic of the N-terminal linker of M3

M2(4): derivative of M2 containing the C-terminal linker of DEBS module 4
kcat [1]: ~0.03 min⁻¹ | highest rate constants that could be measured, tetraketide lactone 2 ([2]; mismatched linker pair): 0.02 to 0.03 min⁻¹ | kcat (saturating rate) of tetraketide lactone 2 formation ([3]; fixed donor, variable (5)M3+TE): 0.74 ± 0.06 min⁻¹ and 0.74 min⁻¹ | Kd ([3]; from saturation curve): 2100 ± 400 nM

M2: module 2 of DEBS, thioesterase replaced with the natural C-terminal linker for module 2
kcat [1]: ~0.02 min⁻¹ | Kd ([2]; estimated from saturation curve): 1100 ± 100 nM | kcat (maximum / saturating rate constant) of tetraketide lactone 2 formation ([2]; fixed donor, variable M3+TE, 7 mM NDK): 0.27 ± 0.01 min⁻¹ and 0.27 min⁻¹ | highest rate constants that could be measured, tetraketide lactone 2 ([3]; mismatched linker pair): 0.02 to 0.03 min⁻¹

DEBS1: first protein of 6-deoxyerythronolide B synthase, loading module and extender modules 1 and 2
Kd ([4]; Gokhale et al. 1999, read-out: KD, previously reported value): 2600 nM | rate of formation of the same tetraketide, earlier measurement ([4]; Pieper et al. 1997): 0.23 min^−

CCC(O)C(C)C(=O)SCCNC(C)=O (stereo not shown) [2b]
incorporation of NAC thioester (qualitative) [5]: readily incorporated and elongated | kcat (elongation rate constant), NAC thioester substrate [6]: 0.02 min⁻¹ | incorporation of NAC thioester (qualitative) [7]: substrates for the three modules | incorporation of NAC thioester (qualitative) [8]: readily incorporated and elongated

H2N-MTDSEKVAEYLRRATLDLRAARQRIRELESD-amide (H-MTDSEKVAEYLRRATLDLRAARQRIRELESD-NH2) [M3 N-term]
helical content ([9]; 100 μM in PBS pH 6.9, listed as N-terminal linker peptide of M3): approximately 50% | helical content ([9]; 100 μM in PBS pH 6.9, listed as peptide mimic): ca. 50% | inhibitory effect upon individually assayed modules [10]: no inhibitory effect | inhibition of tetraketide lactone 2 formation [11, 15]: No inhibitory effect | inhibition of tetraketide lactone 2 formation [11, 16]: no such effect | inhibition of tetraketide lactone 2 formation [12, 15]: could inhibit the formation of 2 | inhibition of tetraketide lactone 2 formation ([12]; listed as peptide corresponding to the N-terminal linker of module 3): shown to inhibit the formation of tetraketide lactone 2 | inhibition of tetraketide lactone 2 formation [12, 16]: lowered the overall rate of tetraketide production in a dose-dependent fashion

CCC(O)C(C)C(=O)SCCNC(C)=O (stereo not shown) [2a]
kcat, NAC thioester substrate [13]: 4.6 min⁻¹ | incorporation of NAC thioester (qualitative) [5]: readily incorporated and elongated | kcat (elongation rate constant), NAC thioester substrate [6]: 0.25 min⁻¹ | incorporation of NAC thioester (qualitative) [7]: substrates for the three modules | incorporation of NAC thioester (qualitative) [8]: readily incorporated and elongated | kcat, NAC thioester substrate [14]: 17 min⁻¹
